T1: Macaca fascicularis IL2Rγ extracellular domain expressed with a C-terminal myc-myc-hexahistidine tag (Macaca fascicularis)
T1 construct: also called mfIL-2Rg-MMH; mfIL-2RG-MMH
T1 chain: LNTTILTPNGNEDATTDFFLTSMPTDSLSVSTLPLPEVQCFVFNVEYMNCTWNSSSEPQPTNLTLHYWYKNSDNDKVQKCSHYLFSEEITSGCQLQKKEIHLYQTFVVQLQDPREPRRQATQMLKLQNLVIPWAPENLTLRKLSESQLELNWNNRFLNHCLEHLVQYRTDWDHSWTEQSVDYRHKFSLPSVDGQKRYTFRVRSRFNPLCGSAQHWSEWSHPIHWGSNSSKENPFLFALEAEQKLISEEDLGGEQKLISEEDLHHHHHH

T2: Human IL2Rγ extracellular domain expressed with a C-terminal myc-myc-hexahistidine tag (human)
T2 construct: also called hIL-2Rg-MMH; hIL-2RG-MMH
T2 chain: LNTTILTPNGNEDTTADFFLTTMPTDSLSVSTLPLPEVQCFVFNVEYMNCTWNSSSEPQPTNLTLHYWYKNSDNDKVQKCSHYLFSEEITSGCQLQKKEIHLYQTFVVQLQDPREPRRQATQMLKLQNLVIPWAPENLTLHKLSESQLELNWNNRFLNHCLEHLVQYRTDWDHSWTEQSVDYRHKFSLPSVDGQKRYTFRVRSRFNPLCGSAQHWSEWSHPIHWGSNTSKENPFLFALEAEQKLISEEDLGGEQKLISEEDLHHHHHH


Experiments:
[1] = molecular target: T1, Macaca fascicularis IL2Rγ extracellular …; assay: SPR Biacore 4000, mAb captured by anti-hFc, 37C, dissociation in PBS-T pH 7.4
Method: (§1) The dissociation rate constant (kd) for binding of IL-2Rγ reagents to purified anti-IL2Rγ monoclonal antibodies was determined using a real-time surface plasmon resonance based Biacore 4000 biosensor platform. […] The CM5 Biacore sensor surface derivatized by amine coupling with monoclonal mouse anti-human Fc antibody (GE, Catalog # BR-1008-39) was used to capture anti-IL2Rγ monoclonal antibodies expressed with human IgG4 Fc. All the IL2Rγ reagents were expressed with a C-terminal myc-myc-hexahistidine tag (subsequently referred to with a -MMH suffix). […] The dissociation of bound IL-2Rg-MMH was performed in PBS-T-pH7.4 or PBS-T-pH6.0 running buffers for 6 minutes.
(§2) Dissociation rate constants (kd) in two running buffers were determined by fitting the real-time binding sensorgrams to a 1:1 binding model using Scrubber 2.0c curve-fitting software. Values of dissociation rate for […] mAb binding to hIL-2RG-MMH and mfIL-2RG-MMH at 25° C. and 37° C. in PBS-T-pH7.4 and PBS-T-pH6.0 is shown in Table 2-1 through Table 2-8.

[2] = molecular target: T1, Macaca fascicularis IL2Rγ extracellular …; assay: SPR Biacore 4000, mAb captured by anti-hFc, HBS-ET, 25C
Method: (§3) Equilibrium dissociation constants (KD values) for IL-2Rγ binding to purified anti-IL2Rγ monoclonal antibodies were determined using a Biacore 4000 instrument equipped with a real-time surface plasmon resonance biosensor. All binding studies were performed in 10 mM HEPES, 150 mM NaCl, 3 mM EDTA, and 0.05% v/v Surfactant Tween-20, pH 7.4 (HBS-ET) running buffer at 25° C. and 37° C. The Biacore sensor surface was first derivatized by amine coupling with a monoclonal mouse anti-human Fc antibody (GE, # BR-1008-39) to capture anti-IL2Rγ monoclonal antibodies.
(§4) The dissociation of monoclonal antibody bound IL2Rγ reagents were monitored for 8-10 minutes in HBS-ET running buffer. Kinetic association (kₐ) and dissociation (kd) rate constants were determined by fitting the real-time sensorgrams to a 1:1 binding model using Scrubber 2.0c curve fitting software. Binding dissociation equilibrium constants (KD) and dissociative half-lives (t_{1/2}) were calculated from the kinetic rate constants as: […]

[3] = molecular target: T2, Human IL2Rγ extracellular domain …; assay: as above
Method: as §3, §4

[4] = molecular target: T2, Human IL2Rγ extracellular domain …; assay: SPR Biacore 4000, mAb captured by anti-hFc, HBS-ET, 37C
Method: as §3, §4

[5] = molecular target: T1, Macaca fascicularis IL2Rγ extracellular …; assay: SPR Biacore 4000, mAb captured by anti-hFc, 37C, dissociation in PBS-T pH 6.0
Method: as §1, §2

| Binder | 100 nM Ag Bound (RU) [1] [RU] | koff [1] [s⁻¹] | t1/2 [1] [min] | 100 nM Ag Bound [2] [RU] | Kd [2] [nM] | koff [2] [s⁻¹] | kon [2] [M⁻¹ s⁻¹] | t1/2 [2] [min] | 100 nM Ag Bound [3] [RU] | Kd [3] [nM] | koff [3] [s⁻¹] | kon [3] [M⁻¹ s⁻¹] | t1/2 [3] [min] | 100 nM Ag Bound [4] [RU] | Kd [4] [nM] | koff [4] [s⁻¹] | kon [4] [M⁻¹ s⁻¹] | t1/2 [4] [min] | 100 nM Ag Bound (RU) [5] [RU] | koff [5] [s⁻¹] | further results |
| --- | --- | --- | --- | --- | --- | --- | --- | --- | --- | --- | --- | --- | --- | --- | --- | --- | --- | --- | --- | --- | --- |
| H4H12889P (antibody, human IgG4 S228P, kappa, V domains shown, anti-IL2Rγ monoclonal antibody expressed with human IgG4 Fc; also called REGN7257) VH: EVQLVESGGGLVQPGGSLRLSCAASGFIFSSYEMHWVRQAPGKGLEWISYISSSGTTIYYADSVKGRFTISRDNAKNSLYLHMNSLRAEDTAVYYCTRARITGTFDVFDIWGQGTMVTVSS VL: DIQMTQSPSSLSASVGDRVTITCRASQSISSYLNWYQQKPGKAPKLLIFAASNLQSGVPSRFSGSRSGTDFTLTISSLQPEDFATYYCQQNYNIPYTFGQGTKLEIKR | 147 | 0.000578 | 20 | 59 | 1.74 | 0.000404 | 233000 | 29 | 64 | 1.41 | 0.00042 | 298000 | 28 | 32 | 3.99 | 0.00185 | 465000 | 6 | 148 | 0.00183 | t1/2 [5]: 6 min |
| H4H12890P (antibody, human IgG4 S228P, kappa, V domains shown, anti-IL2Rγ monoclonal antibody expressed with human IgG4 Fc) VH: EVQLVESGGGLVQPGGSLRLSCAASGFTFNNYAMHWVRQAPGKGLEYVSSISSSGGSTYYEDSVKGRFTISRDNSKNTLYLQMGSLRAEDMAVYYCARSFYGSGTYYDTFDMWGQGTMVTVSS VL: DIQMTQSPSSLSASIGDRVTITCRASQSISRYLNWYQQKPGKAPKLLIYAASSLQSGVPSRFSASGSGTDFTLTISSLQPEDFATYYCQQSYSTPFTFGQGTKLEIKR | 82 | 0.000624 | 19 | 37 | 5.16 | 0.000313 | 60600 | 37 | 48 | 4.91 | 0.000333 | 67900 | 35 | 27 | 14 | 0.00133 | 95100 | 9 | 71 | 0.00276 | t1/2 [5]: 4 min |
| H4H12899P (antibody, human IgG4 S228P, kappa, V domains shown, anti-IL2Rγ monoclonal antibody expressed with human IgG4 Fc) VH: QVQLVESGGDLVKPGGSLRLSCATSGFTFSDFYMTWIRQAPGKGLEWISYISNSGSIVKYADSVKGRFTISRDNAKNSLYLQMNSLRAEDTAIYYCARFYGDRWGQGTLVTVSS VL: DIQLTQSPSFLSASVGDRVTITCWASQGISTFLAWYQQKPGKAPKLLIYAASTLQSGVPSRFSGSGSGTDFTLTISSLQPEDFATYHCQQLNNYPWTFGQGTKVEIKR | 160 | 0.000552 | 21 | 54 | 4.01 | 0.000407 | 102000 | 28 | 61 | 2.51 | 0.000458 | 182000 | 25 | 36 | 7.27 | 0.00249 | 342000 | 5 | 122 | 0.00211 | t1/2 [5]: 5 min |
| H4H12886P (antibody, human IgG4 S228P, kappa, V domains shown, anti-IL2Rγ monoclonal antibody expressed with human IgG4 Fc) VH: EVQLVESGGGLVKPGGSLRLSCAASGFTFSTAWMSWVRQSPGRGLEWVGRMKSKTDGGTTFYAAPVKGRFTISRDDSKNTLYLQMNSLKTEDTAVYYCTTGLVPAFYKYYGVDVWGQGTTVTVSS VL: DIQMTQSPSSLSASVGDRITITCQASQDITNYLNWYQQKPGKAPNLLIYDASNLVTGVPSRFSGSGSGTDFTFTILSLQPEDIATYYCQQYDSLLTFGPGTKVDIKR | 145 | 0.000471 | 25 | 57 | 2.45 | 0.000266 | 109000 | 43 | 60 | 2.02 | 0.00027 | 134000 | 43 | 52 | 15.4 | 0.000956 | 61900 | 12 | 109 | 0.00197 | t1/2 [5]: 6 min |

Second part, led by results:

| 100 nM Ag Bound (RU) [1] [RU] | koff [1] [s⁻¹] | t1/2 [1] [min] | 100 nM Ag Bound [2] [RU] | Kd [2] [nM] | koff [2] [s⁻¹] | kon [2] [M⁻¹ s⁻¹] | t1/2 [2] [min] | 100 nM Ag Bound [3] [RU] | Kd [3] [nM] | koff [3] [s⁻¹] | kon [3] [M⁻¹ s⁻¹] | t1/2 [3] [min] | 100 nM Ag Bound [4] [RU] | Kd [4] [nM] | koff [4] [s⁻¹] | kon [4] [M⁻¹ s⁻¹] | t1/2 [4] [min] | 100 nM Ag Bound (RU) [5] [RU] | koff [5] [s⁻¹] | Binder | further results |
| --- | --- | --- | --- | --- | --- | --- | --- | --- | --- | --- | --- | --- | --- | --- | --- | --- | --- | --- | --- | --- | --- |
| 166 | 0.000623 | 19 | 71 | 1.44 | 0.000335 | 232000 | 34 | 79 | 1.29 | 0.000379 | 293000 | 30 | 43 | 3.66 | 0.00184 | 503000 | 6 | 130 | 0.00277 | H4H12900P (antibody, human IgG4 S228P, kappa, V domains shown, anti-IL2Rγ monoclonal antibody expressed with human IgG4 Fc) VH: QVQLVESGGGLVKPGGSLRLSCEASGFTFNDFYMTWIRQAPGKGLEWIAYISKSGDKMRYADSVKGRFSTSRDNAKNSLSLQMNSLRAEDTAVYYCARFYGDIWGQGTLVTVSS VL: DIQLTQSPSFLSASVGDRVTITCWASQDISSFLVWYQQKPGKAPNLLIYAASALQSGVPSRFSGSGSGTEFTLTISSLQPEDFASYYCEQLNNYPWTFGQGTKVEIKR | t1/2 [5]: 4 min |
| 55 | 0.000514 | 22 | 14 | 7.37 | 0.000237 | 32200 | 49 | 19 | 8.61 | 0.000285 | 33100 | 41 | 16 | 29.2 | 0.00141 | 48300 | 8 | 52 | 0.00131 | H4H12908P (antibody, human IgG4 S228P, kappa, V domains shown, anti-IL2Rγ monoclonal antibody expressed with human IgG4 Fc) VH: EVQLVESGGRLVQPGGSLRLSCEASGFTFSNYGMTWVRQAPGKGLEWVSVISGSDNRKYYAESVKGRFTISRDNSKNTLYLQMNSLRAEDTAVYYCAKLGYSRSSKDFYYGMDVWGQGTTVTVSS VL: not shown | t1/2 [5]: 9 min |

Reference: patent US20200247894A1 (Regeneron, published 2020)
